Experiment [1] deals with T1, FTM-NN protein (membrane anchorless form of the Long fusion protein of hRSV, 70 kDa) (human respiratory syncytial virus, …, UniProt P12568 26-524). Put plainly: competition ELISA, periplasmic extract diluted 1:300, competitor 101F Fab. (In general: ELISA stands for enzyme-linked immunosorbent assay.)
Experiment [2] deals with T1, FTM-NN protein (membrane anchorless …). Put plainly: ELISA, periplasmic extract on immobilised F protein; signal as fold over blank.
Experiment [3] shares this target. As to the kind of experiment: competition ELISA, periplasmic extract diluted 1:1000, competitor 101F Fab.
Experiment [4] has the same target. As to the kind of experiment: competition ELISA, periplasmic extract diluted 1:100, competitor 101F Fab.
For experiment [5], the target named is T2, FTM-NN (membrane anchorless form of the Long fusion protein, 70 kDa) (human respiratory syncytial virus, …, UniProt P12568 26-524).
T2 construct: domain: membrane anchorless form of the fusion protein
As to the kind of experiment: SPR (Biacore), Ftm-NN protein immobilized on chip, Nanobody as analyte.

Experiment [6] has as its target authentic influenza antigen of A/PR/8/34 (ATCC VR-1469), H1N1 (influenza A virus A/PR/8/34 (H1N1), UniProt P03452 18-565). As to the kind of experiment: ELISA on coated authentic influenza antigen.
The target in experiment [7] is T3, FTM-NN protein (membrane anchorless form of the Long fusion protein, 70 kDa) (human respiratory syncytial virus, …, UniProt P12568 26-524).
T3 construct: domain: membrane anchorless form of the fusion protein
As to the kind of experiment: competition ELISA on coated FTM-NN; competitor biotinylated Synagis Fab.

Experiment [8] addresses T3, FTM-NN protein (membrane anchorless …). Put plainly: SPR (Biacore), FTM-NN immobilised. In general terms: Surface plasmon resonance follows binding to a sensor surface in real time, without labels.
The target of experiment [9] is hRSV (inactivated hRSV strain Long, Hytest #8RSV79), F protein on virus particles (human respiratory syncytial virus, …, UniProt P12568 26-574). As to the kind of experiment: binding ELISA on coated hRSV (Hytest), anti-VHH detection.
Experiment [10] has as its target FTM-NN protein (membrane anchorless form of the Long fusion protein, 70 kDa) (human respiratory syncytial virus, …, UniProt P12568 26-524). Put plainly: binding ELISA, periplasmic extract on immobilised antigen.
Experiment [11] addresses F protein of RSV Long (RSV LONG M-2) (human respiratory syncytial virus, …, UniProt P12568 26-574). As to the kind of experiment: cell-based or functional assay.
Experiment [12] concerns the target F protein of RSV A-2 (human respiratory syncytial virus, …, UniProt P03420 26-574). Put plainly: cell-based or functional assay.

Usually Kd stands for the constant that tells how readily two partners part at equilibrium. The term koff denotes the first-order rate constant of dissociation. A low value points to slow dissociation. The kon is a measure of how fast the partners come together. Lower therefore signals slower complex formation. In general, EC50 refers to the concentration at which the effect is half-maximal. Higher therefore signals weaker potency.

B1: PMP1A2 (VHH)
VHH: EVQLVESGGGLVQAGGSLRLSCAASERTFSYYAMGWFRQAPGKEREFVATISRSGEWIYYKDAMKGRFTISRDNANNAVYLQMNSLQPEDTAIYYCAADSLGGFRSASDYYNTNTYAYWGQGTQVTVSS
On to B1, for which the “% Inhibition 101F Fab (1:300 PE)” value in experiment [1] amounted to 27%. Also, the “Binding RSV-A, Fold blanc” value in [2] came to 4 fold over blank. Also, the “% Inhibition 101F Fab (1:1000 PE)” value in experiment [3] worked out at 5%. For the same molecule, in experiment [4], the “% Inhibition 101F Fab (1:100 PE)” value came out at 82%.

B2: NC41v06 (VHH)
VHH: EVQLLESGGGLVQPGGSLRLSCAASGGSLSNYVLGWFRQAPGKGREFVAAINWRDDITIGPPNVEGRFTISRDNAKNTLYLQMNSLRPEDTAVYYCGAGTPLNPGAYIYDWSYDYWGQGTLVTVSS
Regarding B2, in [5], binding was put at a Kd of 2.5 nM, the koff is 0.0048 s⁻¹ and the kon was 2e+06 M⁻¹ s⁻¹.

B3: NC41 (VHH)
VHH: EVQLVESGGGLVQAGGSLSISCAASGGSLSNYVLGWFRQAPGKEREFVAAINWRGDITIGPPNVEGRFTISRDNAKNTGYLQMNSLAPDDTAVYYCGAGTPLNPGAYIYDWSYDYWGRGTQVTVSS
In experiment [5], B3 yielded a Kd of 4 nM, a koff of 0.0067 s⁻¹ and a kon of 1.7e+06 M⁻¹ s⁻¹.

B4: NC41v17 (VHH)
VHH: EVQLLESGGGLVQPGGSLRLSCAASGGSLSNYVLGWFRQAPGKGREFVAAINWRGDITIGPPNVEGRFTISRDNSKNTLYLQMNSLRPEDTAVYYCGAGTPLNPGAYIYDWSYDYWGQGTLVTVSS
As to B4, in [5], binding was characterised by a dissociation constant (Kd) of 3.2 nM, the koff came to 0.0059 s⁻¹ and the kon stood at 1.9e+06 M⁻¹ s⁻¹.

B5: IV25 (VHH)
VHH: QVQLQQSGGGLVQSGGSLSLSCAASGITLNNRVVGWFRQAPGKEREFVGRIMWSVGDTFYARSVKGRFTISRDNAKNTMYLQMNALKPEDTAVYYCAAARDPDLYTGQYEYWGQGTQVTVSS
notes: yeast-produced
As to B5, the binding result in experiment [6] is “no binding (tested: 10 µg/ml)”.

B6: RSVNC41 (VHH)
VHH: EVQLVESGGGLVQAGGSLSISCAASGGSLSNYVLGWFRQAPGKEREFVAAINWRGDITIGPPNVEGRFTISRDNAKNTGYLQMNSLAPDDTAVYYCGAGTPLNPGAYIYDWSYDYWGRGTQVTVSS
In experiment [7], B6 came in with an EC50 of 32 nM. In [8], the affinity, expressed as Kd, was 8.1 nM; the koff worked out at 0.0067 s⁻¹; the kon turned out to be 820000 M⁻¹ s⁻¹. In addition, a half-maximal effect in [9] (EC50) was put at 0.41 nM.

B7: PMP20C1 (VHH)
VHH: EVQLVESGGGLVQAGGSLRLSCAASGRTFSSFAMGWFRQAPGKEREFVAAISWSGGSTYYADSVKGRFTISGDNAKNTMYLQMNSLKPEDTAVYYCAADSEILNSGAYYYPWAYVYWGQGTQVTVSS
Regarding B7, in experiment [10], the “Binding RSV-A, Fold blanc” value is 2.7 fold over blank.

B8: PMP19C4 (VHH)
VHH: EVQLVESGGGLVQAGGSLRLSCAASGRSFSNYVLGWFRQAPGKEREFVAAISFRGDSAIGAPSVEGRFTISRDNAKNTGYLQMNSLVPDDTAVYYCGAGTPLNPGAYIYDWSYDYWGRGTQVTVSS
B8: the “Binding RSV-A, Fold blanc” value in [10] was determined as 2.5 fold over blank.

B9: PMP1G8 (VHH)
VHH: EVQLVESGGGSVQAGGSLRLSCAASGGSFNRFGMGWFRRAPGKERDFVAAINLSGDTTYYVDSVQGRFTISRDNANNIMYLQMNLLKPEDTADYYCAADPDPITAWKQSGAGMDYWGKGTQVTVSS
Consider B9, for which, in experiment [10], the “Binding RSV-A, Fold blanc” value is 3.7 fold over blank.

B10: IV133 (VHH)
VHH: QVQLQQSGGGLVQPGGSLRLSCAASSSGFSFNPMGWYRQAPGKQRELVATMTSGGTTNYADSVKGRFTISRDNAKTTVYLQMNSLKPEDTAVYYCNARGPRRATTGWITDDYWGQGTQVTVSS
notes: yeast-produced
For the molecule B10, the binding result in experiment [6] is listed as “no binding (tested: 10 µg/ml)”.

B11: IV156 (VHH)
VHH: QVQLQQSGGGLVQPGGSLRLSCAASRSGFSFNPMGWYRQAPGKQRELVATITSGGTTNYADSVKGRFTISTDNAKTTVFLQMNSLKPEDTAVYYCNGRGPRRGTAGWFTDDYWGQGTQVTVSS
notes: yeast-produced
With B11, in experiment [6], the binding result was “no binding (tested: 10 µg/ml)”.

B12: IV157 (VHH)
VHH: QVQLQQSGGGLVQPGGSLRLSCAASRSDISFNPMGWYRQAPGKQRELVATISNGGTTNYADSVKGRFTISQDNAKTTVYLQMNSLKPEDTAVYYCNGRGPRYATTGWYTDDYWGQGTQVTVSS
notes: yeast-produced
On to B12, for which the binding result in experiment [6] is “no binding (tested: 10 µg/ml)”.

B13: LG191D3 (VHH)
VHH: EVQLVESGGGLVQAGGSLRLSCEASGRTYSRYGMGWFRQAPGKEREFVAAVSRLSGPRTVYADSVKGRFTISRDNAENTVYLQMNSLKPEDTAVYTCAAELTNRNSGAYYYAWAYDYWGQGTQVTVSS
For the molecule B13, the “RSV neutralization IC50 (nM) (n = 2), Long” value in experiment [11] is 253 nM. In addition, in experiment [12], the “RSV neutralization IC50 (nM) (n = 2), A-2” value was 227 nM. This molecule also gave an EC50 in [7] of 5.9 nM. In experiment [8], the Kd stood at 1.9 nM, the koff amounted to 0.0028 s⁻¹ and the kon is 1.5e+06 M⁻¹ s⁻¹. In experiment [9], this molecule yielded an EC50 of 0.15 nM.

B14: 1E4 (VHH)
VHH: EVQLVESGGGLVQAGGSLRLSCEASGRTFSSYGMGWFRQAPGKEREFVAAVSRLSGPRTVYADSVKGRFTISRDNAENTVYLQMNSLKPEDTAVYTCAAELTNRNPGAYYYTWAYDYWGQGTQVTVSS
Turning to B14, the “RSV neutralization IC50 (nM) (n = 2), Long” value in experiment [11] came to 380 nM. The “RSV neutralization IC50 (nM) (n = 2), A-2” value in experiment [12] was determined as 298 nM.

B15: IV144 (VHH)
VHH: QVQLQQSGGGLVQAGGSLRLSCAASGNIISFNPMGWHRQAPGKQRELVASITSGGSISYVDSVKGRFTISRDSAKNTIYLQMNSLKPEDTAVYFCAGEGPRRRGSTWYTDTYWGQGTQVTVSS
notes: yeast-produced
Consider B15, for which, in experiment [6], the binding result is “no binding (tested: 10 µg/ml)”.

B16: PMP1E5 (VHH)
VHH: EVQLVESGGGLVQAGGSLRLSCEASGRTFSPIAMGWFRQAPGKEREFVAVVTRWSGARTVYADSVKGRFTISRDNAENTVYLQMNSLKPEDTAVYTCAADSTNRNSGAIYYTWAYDYWGQGTQVTVSS
Consider B16, for which the “Binding RSV-A, Fold blanc” value in experiment [10] amounted to 3.4 fold over blank.

B17: PMP20B2 (VHH)
VHH: EVQLVESGGGLVQAGGSLRLSCEASGRTFSSYDMGWFRQAPGKEREFVAAVTRWSGARGVYADSVKGRFTISRDNAENTVHLQMNSLKPEDTAVYTCAADSTNRNSGAVYYTWAYDYWGQGTQVTVSS
As for B17, the “Binding RSV-A, Fold blanc” value in [10] was 3 fold over blank.

B18: PMP1G3 (VHH)
VHH: EVQLVESGGGLVQAGGSLRLSCEASGRTYSRYGMGWFRQAPGKEREFVAAVSRLSGPRTVYADSVKGRFTISRDNAENTVYLQMNSLKPEDTAVYTCAAELTNRNSGAYYYAWAYDYWGQGTQVTVSS
Regarding B18, in experiment [10], the “Binding RSV-A, Fold blanc” value amounted to 3.4 fold over blank.

B19: IV131 (VHH)
VHH: QVQLQQSGGGLVQAGGSLRLSCAASGSGFSFNPMGWYRQAPGKQRELVASITSGGTTNYVDSVKGRFTISRGNAKNTVYLQMNSLKPEDTAVYYCAAEGPRRRGSTWYTDNYWGQGTQVTVSS
notes: yeast-produced
As to B19, the binding result in [6] is given as “no binding (tested: 10 µg/ml)”.

B20: PMP7B2 (VHH)
VHH: EVQLVESGGGLVQAGDSLRLSCAASGRTFSSYAMGWFRQAPGKEREFVAAISWSDGSTYYADSVKGRFTISRDNAKNTVYLQMNSLKPEDTAVYYCAADLTSTNPGSYIYIWAYDYWGQGTQVTVSS
On to B20, for which, in [10], the “Binding RSV-A, Fold blanc” value stood at 4.7 fold over blank.

B21: PMP1A6 (VHH)
VHH: EVQLVESGGGLVQAGGSLRLSCAASGRTFSSYAMGWFRQAPGKEREFVAAIWWSGGSTYYADSVKGRFTMSRDNAKNTVYLEMNNLKPEDTAVYYCAADTDSSNSGSYLYTWAYDYWGQGTQVTVSS
Consider B21, for which, in experiment [10], the “Binding RSV-A, Fold blanc” value was 4.2 fold over blank.

The values above are taken from patent US20200123233A1 (published 2020).
